Target: T1, B7H3 on Weri-RB1 cells (UniProt Q5ZPR3)
T1 sequence: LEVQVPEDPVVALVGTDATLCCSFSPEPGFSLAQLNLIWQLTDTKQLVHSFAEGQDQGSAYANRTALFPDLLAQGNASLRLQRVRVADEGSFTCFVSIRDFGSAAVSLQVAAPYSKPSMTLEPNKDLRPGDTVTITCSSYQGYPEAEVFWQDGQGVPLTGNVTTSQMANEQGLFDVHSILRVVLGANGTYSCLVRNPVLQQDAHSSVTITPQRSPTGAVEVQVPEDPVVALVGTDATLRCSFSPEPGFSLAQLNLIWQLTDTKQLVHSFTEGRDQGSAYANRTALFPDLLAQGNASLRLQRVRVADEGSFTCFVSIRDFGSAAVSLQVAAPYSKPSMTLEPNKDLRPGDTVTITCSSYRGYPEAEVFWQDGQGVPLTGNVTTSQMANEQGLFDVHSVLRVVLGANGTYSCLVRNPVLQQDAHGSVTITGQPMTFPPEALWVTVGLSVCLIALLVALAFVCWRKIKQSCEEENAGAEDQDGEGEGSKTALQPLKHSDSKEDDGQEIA
Test: flow cytometry
Conditions: FITC aptamer, ABB: AWB (composition not given) + 0.1 mg/ml yeast tRNA, 0.1 mg/ml salmon sperm DNA, 5% FBS, 1 mg/ml BSA, 60 min, 0-500 nM …, flow binding assay on ice, d

| Sequence | Kd |
| --- | --- |
| TAGGGAAGAGAAGGACATATGATATAAGTGACACATCAATCTCATGCGGATGAACCAGTGCGTTTGACTAGTACATGACCACTT [VRF-HS_B7H3-03] | 46.6 nM |
| TAGGGAAGAGAAGGACATATGATTGCCCCTGACACTTACACGCCACTATCAAGGCACACGCCATTGACTAGTACATGACCACTT [VRF-HS_B7H3-04] | 51.4 nM |
| TAGGGAAGAGAAGGACATATGATACAGCACGGTATGACGAGTCCATTGTGTGTGCAGCTCGCTAATTGACTAGTACATGACCACTT [VRF-HS_B7H3-01] | 32.1 nM |
| TAGGGAAGAGAAGGACATATGATCGCCCCTCTTTTCGATTTCAAGCTCCTAACCCACACCTCTTTGACTAGTACATGACCACTT [VRF-HS_B7H3-02] | 47.2 nM |
| TAGGGAAGAGAAGGACATATGATTGAGAAGTCACGCCACTTACCTGCGCTCAAAACCTCAGAATTGACTAGTACATGACCACTT [VRF-HS_B7H3-05] | 50.6 nM |
